Experimental findings from paper PMC6033896 (Scientific Reports, 2018) are described below.

This assay deals with T1, fluorescent labelled Bid BH3 peptide (fluorescent label (Flu- or FAM-), position not stated).
T1 construct: BH3 peptide derived from the pro-apoptotic protein Bid; The methods name two probes (Flu-Bid with Mcl-1); the two probes may differ in label and limits; also called Flu-Bid; FAM-Bid
Briefly: fluorescence polarisation; direct binding of the fluorescent Bid probe to recombinant protein; Ex 485 nm, Em 530 nm, room temperature; buffer of the Kd determination not told apart from the two competitive assay buffers. The following applies: both partners purified. A general note: Fluorescence polarisation rises when a labelled molecule tumbles more slowly, as on binding a larger partner.

B1: recombinant Mcl-1 protein (wild type) (natural protein)
chain: EDELYRQSLEIISRYLREQATGAKDTKPMGRSGATSRKALETLRRVGDGVQRNHETAFQGMLRKLDIKNEDDVKSLSRVMIHVFSDGVTNWGRIVTLISFGAFVAKHLKTINQESCIEPLAESITDVLVRTKRDWLVKQRGWDGFVEFFHVEDLEGG
A word on the Kd: it is the free concentration of one partner at which half of the binding sites on the other are occupied at equilibrium, for simple one-to-one binding. For the molecule B1, the Kd turned out to be 3 ± 0.1 nM.

B2: recombinant Bcl-xL protein (natural protein)
chain: MSQSNRELVVDFLSYKLSQKGYSWSQFSDVEENRTEAPEGTESEVKQALREAGDEFELRYRRAFSDLTSQLHITPGTAYQSFEQVVNELFRDGVNWGRIVAFFSFGGALCVESVDKEMQVLVSRIAAWMATYLNDHLEPWIQENGGWDTFVELYGNNAAAESRKGQERFN
B2: the Kd was 20 ± 2.3 nM.
